What all share (conditions): both partners purified
Experiment [1] addresses Protective Antigen PA83 (83 kDa) of Bacillus anthracis (Bacillus anthracis, strain of …, UniProt P13423). The experiment is described as follows: SPR. Background: SPR reads the build-up and loss of mass on a sensor chip optically.
Experiment [2] deals with T1, PA83 region YTVDVKNKRTFLSPWI (domain I) (Bacillus anthracis).
T1 chain: YTVDVKNKRTFLSPWI
The experiment is described as follows: peptide or protein array.

The target of experiment [3] is T2, PA83 peptide PLYISNPNY (domain IV) (Bacillus anthracis).
T2 chain: PLYISNPNY
The experiment is described as follows: peptide or protein array.

3 molecules from publication PMC8955606 (Toxins, 2022) can be followed below.

A word on the Kd: it is the concentration at which binding is half-saturated. Higher therefore signals lower affinity.

Chain of Protective Antigen PA83 (83 kDa) of Bacillus anthracis (P13423 whole entry, looked up): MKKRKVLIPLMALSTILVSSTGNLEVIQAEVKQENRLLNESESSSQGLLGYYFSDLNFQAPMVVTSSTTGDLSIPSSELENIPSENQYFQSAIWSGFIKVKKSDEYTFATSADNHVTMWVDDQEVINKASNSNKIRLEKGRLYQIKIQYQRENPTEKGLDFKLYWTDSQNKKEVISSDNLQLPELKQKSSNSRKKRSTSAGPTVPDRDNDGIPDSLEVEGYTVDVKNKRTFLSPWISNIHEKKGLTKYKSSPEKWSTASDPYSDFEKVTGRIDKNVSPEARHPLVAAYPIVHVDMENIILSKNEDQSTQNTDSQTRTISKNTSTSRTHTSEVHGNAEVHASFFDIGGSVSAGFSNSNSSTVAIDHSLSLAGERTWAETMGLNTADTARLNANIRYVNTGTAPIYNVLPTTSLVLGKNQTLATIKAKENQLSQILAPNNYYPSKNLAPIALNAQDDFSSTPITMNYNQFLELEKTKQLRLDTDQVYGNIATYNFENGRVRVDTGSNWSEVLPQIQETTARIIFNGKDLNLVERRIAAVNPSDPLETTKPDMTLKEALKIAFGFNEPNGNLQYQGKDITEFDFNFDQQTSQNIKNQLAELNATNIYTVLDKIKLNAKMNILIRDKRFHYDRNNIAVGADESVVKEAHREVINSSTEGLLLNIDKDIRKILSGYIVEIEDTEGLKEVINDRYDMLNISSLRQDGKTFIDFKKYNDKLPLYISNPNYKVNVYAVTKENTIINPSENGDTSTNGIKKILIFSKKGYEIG

B1: 35PA83 6.20 G1 (antibody, V domains shown)
VH: QVQLQESGPGLVKPSETLSLTCTVSGDSISGGYYWGWIRQSPGKGLEWIGLIYGSTADTRYNPSLKGRVTISKDTSKNQFSLKLSSVTAADTAVYYCARSGYNFWSGEYYGLDSWGQGTLVTVSS
VL: AIQLTQSPSSLSAYVGDRVTITCHASQGINSWLAWYQQKPGKAPKLLIYKASSLLSGVPSRFSGSGSGTDFTLTISSLQSEDFATYYCLQYDSAPLAFGPGTKLEIK
notes: also called mutant that combined the 10 selected mutations; source: expressed and purified by Proteogenix
In experiment [1], B1 displayed a Kd of 0.316 nM.

B2: 35PA83 6.20 IgG1 (GMP batch) (antibody, V domains shown)
VH: QVQLQESGPGLLKPSETLSLTCAVSGDSISGGYYWSWIRQSPGKGLEWIGLIYGSTADTRYNPSLKGRVTISKDTSKNQLSLQLRSVTAADTAVYYCARSGYNFWSGEYYGLDSWGQGAVVTVSS
VL: AIQLTQSPSSLSAYVGDKVTITCHASQGINSWLAWYQQKPGKAPKLLIYKASSLLSGVPSRFSGSGSGTDYTLTISSLQSEDFASYYCLQYDSAPLAFGPGTKLDIK
notes: also called IgG 35PA83 6.20; 35PA83 6.20 mAb; source: rat YB2/0-E cell line (LFB), GMP conditions
In the case of B2, the binding result in experiment [2] and in experiment [3] was “binds” throughout.

B3: 35PA83 6.20 (parental antibody of the super-humanization) (antibody, V domains shown)
VH: QVQLQESGPGLLKPSETLSLTCAVSGDSISGGYYWSWIRQSPGKGLEWIGLIYGSTADTRYNPSLKGRVTISKDTSKNQLSLQLRSVTAADTAVYYCARSGYNFWSGEYYGLDSWGQGAVVTVSS
VL: AIQLTQSPSSLSAYVGDKVTITCHASQGINSWLAWYQQKPGKAPKLLIYKASSLLSGVPSRFSGSGSGTDYTLTISSLQSEDFASYYCLQYDSAPLAFGPGTKLDIK
notes: also called the parental antibody; 35PA80 6.20
The molecule B3 gave a Kd in experiment [1] of 0.18 nM.
